The source of these data is patent publication US20250082772A1.

The target of assay [1] is recombinant mouse CD71 (Sino Biological Inc., Beijing, China) (mouse) (UniProt Q62351). Nature of the assay: plate binding to coated recombinant mouse CD71; EC50 of the conjugate against that of clone R17.
Assay [2] has the same target. Description: plate binding to coated recombinant mouse CD71, RiboGreen fluorescence detection of the conjugate's siRNA.
In assay [3] the target is CD71 on primary hepatocytes. Description: cell-based or functional assay.
Assay [4] has as its target recombinant mouse CD71 (Sino Biological Inc., Beijing, China) (mouse) (UniProt Q62351). Nature of the assay: plate binding to coated recombinant mouse CD71, Alexa Fluor 488 labeled secondary antibody, fluorescence.

Sequence of UniProt Q62351 (Q62351 89-763 limits assumed): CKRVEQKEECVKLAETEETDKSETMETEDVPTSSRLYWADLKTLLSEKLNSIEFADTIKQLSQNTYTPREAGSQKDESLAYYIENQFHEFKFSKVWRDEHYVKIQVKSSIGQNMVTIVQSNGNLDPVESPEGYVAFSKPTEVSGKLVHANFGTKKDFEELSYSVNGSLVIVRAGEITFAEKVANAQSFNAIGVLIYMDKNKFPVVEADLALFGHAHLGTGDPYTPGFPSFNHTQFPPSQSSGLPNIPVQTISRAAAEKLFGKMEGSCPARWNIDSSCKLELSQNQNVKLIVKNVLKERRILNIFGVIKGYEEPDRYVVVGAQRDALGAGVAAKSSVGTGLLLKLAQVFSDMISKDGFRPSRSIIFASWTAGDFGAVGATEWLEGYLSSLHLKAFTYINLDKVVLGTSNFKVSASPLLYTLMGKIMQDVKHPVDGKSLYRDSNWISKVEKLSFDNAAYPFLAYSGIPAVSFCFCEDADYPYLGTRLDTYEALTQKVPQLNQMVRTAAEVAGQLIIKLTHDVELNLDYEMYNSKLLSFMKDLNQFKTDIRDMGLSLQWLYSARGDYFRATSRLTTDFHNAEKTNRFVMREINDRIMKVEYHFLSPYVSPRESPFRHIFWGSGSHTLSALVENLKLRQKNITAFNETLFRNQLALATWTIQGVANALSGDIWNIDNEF

For the substance “clone R17 Fab'-siHPRT conjugate linked with the maleimide linker”, in assay [1], the fold difference of EC50 between clone R17 and the conjugate came to 20 fold. Besides, the EC50 in assay [2] was 29 nM.
Regarding “clone R17 Fab'-siApoB conjugate linked with the maleimide linker”, in assay [3], the EC50 in inhibiting of ApoB gene expression (primary hepatocytes, quantitative PCR) was 11 nM and the silencing of ApoB at 900 nM (primary hepatocytes, quantitative PCR) worked out at 46%.
Consider “anti-CD71 antibody (clone R17 217.1.3) purchased from Bio X Cell”, for which the EC50 in assay [4] stood at 1.5 nM.

Usually EC50 stands for the concentration that produces a half-maximal response.
